Data published in patent publication US20230136228A1 (LAMKAP BIO ALPHA, published 2023).
Positions count from the first letter of the chain named. Names may count otherwise.

Assays:
[1] = molecular target: T1, human CEACAM1 (human, UniProt P13688 35-526); assay: flow cytometry, transfected PEAK cells, 10 mcg/ml
T1 construct: whole, on cells
T1 sequence (looked up): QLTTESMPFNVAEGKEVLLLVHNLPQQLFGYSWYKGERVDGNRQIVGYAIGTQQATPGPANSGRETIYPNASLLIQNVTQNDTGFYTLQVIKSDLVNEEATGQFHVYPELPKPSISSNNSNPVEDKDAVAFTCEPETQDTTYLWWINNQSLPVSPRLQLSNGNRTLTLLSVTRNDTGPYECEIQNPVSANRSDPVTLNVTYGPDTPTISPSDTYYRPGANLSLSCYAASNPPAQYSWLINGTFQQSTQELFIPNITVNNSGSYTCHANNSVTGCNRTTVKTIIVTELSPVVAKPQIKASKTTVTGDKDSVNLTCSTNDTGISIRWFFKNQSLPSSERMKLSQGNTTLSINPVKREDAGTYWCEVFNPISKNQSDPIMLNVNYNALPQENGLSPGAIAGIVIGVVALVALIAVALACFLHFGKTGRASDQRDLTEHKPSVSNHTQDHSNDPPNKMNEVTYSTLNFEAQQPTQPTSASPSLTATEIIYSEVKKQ
From the text: (§1) Vectors encoding the full-length version of human CEACAM 1, 3, 4, 5, 6, 7, 8, 18, 19, 20 and […] are used to express these proteins at the surface of PEAK and/or CHO cells as described in Example 1. Similarly, vectors encoding the full-length version of cyno CEACAM 5 and 6 are also used to express these proteins at the surface of PEAK and/or CHO cells. Non-transfected PEAK and/or CHO cells are used as negative control. Cells are harvested, counted, checked for viability and resuspended at 3×10⁶ cells/ml in FACS buffer (PBS 2% BSA, 0.1% NaN₃). 100 μl of the cell suspension are distributed in V-bottom 96-well plates (3×10⁵ cells/well). The supernatant is removed by centrifugation 3 minutes at 4° C., 1300 rpm and the cells incubated for 15 minutes at 4° C. with increasing concentrations of the antibody according to the invention. The antibodies carrying the anti-CEACAM5 arms to test are diluted in FACS buffer and the concentration range is 30 pM-500 nM. Cells are washed twice with cold FACS buffer and re-incubated for further 15 minutes at 4° C. with a compatible anti-human IgG secondary antibody. Cells are washed twice with cold FACS buffer and resuspended in 300 μl FACS buffer with 1:1500-diluted TOPRO-3 (Invitrogen). Fluorescence is measured using a FACSCalibur™ (BD Biosciences) or a Cytoflex Platform (Beckman Coulter). Dose-response binding curves are fitted using GraphPad Prism8 software. In the same manner, CEACAM1, CEACAM6 and other CEACAMs can be characterized.
(§2) For the bispecific antibodies AB17L3-1/N, AB71L3-1/N, AB72L3-1/N, AB73L3-1/N the MFI measured for binding to CEACAM5 transfected cells was found between 29000 and 41000 (Table 2). In contrast MFI found by using PEAK cells transfected with CEACAM 1,3,4,6,8 were found below 1000 with the only exception of a strong signal for AB72L3-1/N on CEACAM8 transfected cells. When MFI values obtained on transfected cells expressing any given CEACAM are divided by the values obtained on WT PEAK cells, “factors to PEAK WT” can be calculated (Table 3).

[2] = molecular target: T2, human CEACAM3 (human, UniProt P40198 35-252); assay: flow cytometry, transfected PEAK cells, 10 mcg/ml
T2 construct: whole, on cells
T2 sequence (looked up): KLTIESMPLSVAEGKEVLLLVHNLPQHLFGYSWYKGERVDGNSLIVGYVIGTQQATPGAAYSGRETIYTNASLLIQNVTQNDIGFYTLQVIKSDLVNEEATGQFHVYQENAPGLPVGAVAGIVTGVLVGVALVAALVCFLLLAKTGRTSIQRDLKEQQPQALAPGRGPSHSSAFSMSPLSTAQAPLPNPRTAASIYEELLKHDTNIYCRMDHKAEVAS
From the text: as §1, §2

[3] = molecular target: T3, human CEACAM8 (human, UniProt P31997 35-320); assay: flow cytometry, transfected PEAK cells, 10 mcg/ml
T3 construct: whole, on cells
T3 sequence (looked up): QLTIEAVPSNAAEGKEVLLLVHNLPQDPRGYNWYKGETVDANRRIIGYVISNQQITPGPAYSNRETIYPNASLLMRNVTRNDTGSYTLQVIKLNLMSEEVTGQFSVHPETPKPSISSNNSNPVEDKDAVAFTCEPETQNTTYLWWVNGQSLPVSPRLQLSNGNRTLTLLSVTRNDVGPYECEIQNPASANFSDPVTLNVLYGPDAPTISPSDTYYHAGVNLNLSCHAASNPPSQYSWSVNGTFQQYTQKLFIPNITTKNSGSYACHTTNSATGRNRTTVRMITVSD
From the text: as §1, §2

[4] = molecular target: T4, human CEACAM5 (carcinoembryonic antigen, CEA), cell surface (human, UniProt P06731 35-685); assay: flow cytometry, transfected PEAK cells, 10 mcg/ml
T4 construct: whole, on cells; also called CD66e
T4 sequence (looked up): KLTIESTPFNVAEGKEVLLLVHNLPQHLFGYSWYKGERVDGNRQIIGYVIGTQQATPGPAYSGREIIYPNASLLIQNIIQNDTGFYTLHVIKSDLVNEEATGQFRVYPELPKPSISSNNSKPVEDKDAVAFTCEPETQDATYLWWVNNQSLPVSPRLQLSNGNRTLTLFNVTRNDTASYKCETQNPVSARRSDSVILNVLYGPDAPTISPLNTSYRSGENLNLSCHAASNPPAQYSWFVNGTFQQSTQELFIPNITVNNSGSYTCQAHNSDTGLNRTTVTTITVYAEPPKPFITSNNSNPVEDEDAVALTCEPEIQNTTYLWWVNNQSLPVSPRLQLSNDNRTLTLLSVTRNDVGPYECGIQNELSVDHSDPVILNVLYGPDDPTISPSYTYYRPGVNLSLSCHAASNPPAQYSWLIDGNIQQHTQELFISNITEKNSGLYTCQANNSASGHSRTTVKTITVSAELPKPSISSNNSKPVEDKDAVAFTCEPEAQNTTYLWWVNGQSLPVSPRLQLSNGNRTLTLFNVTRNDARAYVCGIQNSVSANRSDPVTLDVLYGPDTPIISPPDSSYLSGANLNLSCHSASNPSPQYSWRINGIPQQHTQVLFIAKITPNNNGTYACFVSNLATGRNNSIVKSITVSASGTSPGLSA
From the text: as §1, §2

[5] = molecular target: T5, shed soluble CEACAM5 (sCEA) (human, UniProt P06731 35-685, limits assumed); assay: cell-based or functional assay
T5 sequence (looked up): T4 sequence (looked up)

[6] = molecular target: T4, human CEACAM5 (carcinoembryonic …); assay: flow cytometry, CEA positive cells

B1: AB17L3-1/N (bispecific antibody, human IgG1, kappa, lambda, L234A L235A)
heavy: EVQLVESGGGLVQPGGSLKLSCAASGFTFNTYAMNWVRQAPGKGLEWVGRIRSKYNNYATYYADSVKDRFTISRDDSKNTAYLQMNSLKTEDTAVYYCVRHGNFGNSYVSWFAYWGQGTLVTVSSASTKGPSVFPLAPSSKSTSGGTAALGCLVKDYFPEPVTVSWNSGALTSGVHTFPAVLQSSGLYSLSSVVTVPSSSLGTQTYICNVNHKPSNTKVDKRVEPKSCDKTHTCPPCPAPEAAGGPSVFLFPPKPKDTLMISRTPEVTCVVVDVSHEDPEVKFNWYVDGVEVHNAKTKPREEQYNSTYRVVSVLTVLHQDWLNGKEYKCKVSNKALAAPIEKTISKAKGQPREPQVYTLPPSREEMTKNQVSLTCLVKGFYPSDIAVEWESNGQPENNYKTTPPVLDSDGSFFLYSKLTVDKSRWQQGNVFSCSVMHEALHNHYTQKSLSLSPG
light 1: EIVLTQSPATLSLSPGERATLSCRASQSVNSNLNWYQQKPGQAPRLLIYHGSNRATGIPARFSGSGSGTDFTLTISSLEPEDFAVYYCQQFDYFKEHNTFGQGTKVEIKRTVAAPSVFIFPPSDEQLKSGTASVVCLLNNFYPREAKVQWKVDNALQSGNSQESVTEQDSKDSTYSLSSTLTLSKADYEKHKVYACEVTHQGLSSPVTKSFNRGEC
light 2: QTVVTQEPSLTVSPGGTVTLTCRSSTGAVTTSNYANWFQQKPGQAPRGLIGGTNKRAPGTPARFSGSLLGGKAALTLSGAQPEDEAEYYCALWYKQRWVFGGGTKLTVLGQPKAAPSVTLFPPSSEELQANKATLVCLISDFYPGAVTVAWKADSSPVKAGVETTTPSKQSNNKYAASSYLSLTPEQWKSHRSYSCQVTHEGSTVEKTVAPTECS
notes: Kappa-lambda body, lead optimization wave 1
Question: How did the MFI [1] turn out when B1 was run?
Answer: 652 MFI

Question: What about the MFI [2] of the same binder?
Answer: 633 MFI

Question: And the MFI [3]?
Answer: 411 MFI

Question: What about the MFI [4] of the same binder?
Answer: 29200 MFI

Question: What about the “EC50 fold change compared to no shed CEA condition, sCEA 0 µg/mL (reference)” value [5] of the same binder?
Answer: 1 fold

Question: What about the “EC50 fold change compared to no shed CEA condition, sCEA 0.2 µg/mL” value [5] of the same binder?
Answer: 3.2 fold

Question: And the “EC50 fold change compared to no shed CEA condition, sCEA 1 µg/mL” value [5]?
Answer: 5 fold

Question: And the “EC50 fold change compared to no shed CEA condition, sCEA 5 µg/mL” value [5]?
Answer: 11 fold

B2: AB1L3-1/N (bispecific antibody, human IgG1, kappa, lambda, L234A L235A)
heavy: B1 heavy
light 1: B1 light 1 with Y93L, F94R, K95H
light 2: B1 light 2
notes: Kappa-lambda body: common heavy chain (hIgG1 L234A+L235A+P329A), kappa CEA light chain AB1, lambda CD3 light chain L3-1 (1A4); also called parental KL bispecific antibody
Question: With B2 as the binder, how does the MFI [1] read?
Answer: 441 MFI

Question: And the MFI [2]?
Answer: 358 MFI

Question: What about the MFI [3] of the same binder?
Answer: 343 MFI

Question: And the MFI [4]?
Answer: 7750 MFI

B3: AB72L3-1/N (bispecific antibody, human IgG1, kappa, lambda, L234A L235A)
heavy: B1 heavy
light 1: B1 light 1 with G51S, S52T, A55P, T56R, H97Y
light 2: B1 light 2
notes: Kappa-lambda body, lead optimization wave 2
Question: With B3 as the binder, how does the MFI [1] read?
Answer: 652 MFI

Question: What about the MFI [2] of the same binder?
Answer: 474 MFI

Question: And the MFI [3]?
Answer: 6290 MFI

Question: And the MFI [4]?
Answer: 41000 MFI

Question: What about the “binding higher than TCB2014 (at 200 nM)” value [6] of the same binder?
Answer: ≥ 40%

Question: What about the “EC50 fold change compared to no shed CEA condition, sCEA 0 µg/mL (reference)” value [5] of the same binder?
Answer: 1 fold

Question: What about the “EC50 fold change compared to no shed CEA condition, sCEA 0.2 µg/mL” value [5] of the same binder?
Answer: 1.2 fold

Question: What about the “EC50 fold change compared to no shed CEA condition, sCEA 1 µg/mL” value [5] of the same binder?
Answer: 2.4 fold

Question: And the “EC50 fold change compared to no shed CEA condition, sCEA 5 µg/mL” value [5]?
Answer: 7.3 fold

B4: AB73L3-1/N (bispecific antibody, human IgG1, kappa, lambda, L234A L235A)
heavy: B1 heavy
light 1: B1 light 1 with G51S, S52N, A55P, T56H, K95R, H97Y
light 2: B1 light 2
notes: as for B3
Question: With B4 as the binder, how does the MFI [1] read?
Answer: 542 MFI

Question: What about the MFI [2] of the same binder?
Answer: 465 MFI

Question: What about the MFI [3] of the same binder?
Answer: 401 MFI

Question: What about the MFI [4] of the same binder?
Answer: 36200 MFI

Question: And the “binding higher than TCB2014 (at 200 nM)” value [6]?
Answer: ≥ 40%

Question: And the “EC50 fold change compared to no shed CEA condition, sCEA 0 µg/mL (reference)” value [5]?
Answer: 1 fold

Question: And the “EC50 fold change compared to no shed CEA condition, sCEA 0.2 µg/mL” value [5]?
Answer: 0.8 fold

Question: And the “EC50 fold change compared to no shed CEA condition, sCEA 1 µg/mL” value [5]?
Answer: 2.9 fold

Question: And the “EC50 fold change compared to no shed CEA condition, sCEA 5 µg/mL” value [5]?
Answer: 7.4 fold

B5: AB71L3-1/N (bispecific antibody, human IgG1, kappa, lambda, L234A L235A)
heavy: B1 heavy
light 1: B1 light 1 with G51S, A55P, T56H
light 2: B1 light 2
notes: as for B3
Question: How did the MFI [1] turn out when B5 was run?
Answer: 451 MFI

Question: And the MFI [2]?
Answer: 358 MFI

Question: What about the MFI [3] of the same binder?
Answer: 391 MFI

Question: What about the MFI [4] of the same binder?
Answer: 35100 MFI

Question: What about the “binding higher than TCB2014 (at 200 nM)” value [6] of the same binder?
Answer: ≥ 40%

Question: And the “EC50 fold change compared to no shed CEA condition, sCEA 0 µg/mL (reference)” value [5]?
Answer: 1 fold

Question: What about the “EC50 fold change compared to no shed CEA condition, sCEA 0.2 µg/mL” value [5] of the same binder?
Answer: 0.6 fold

Question: And the “EC50 fold change compared to no shed CEA condition, sCEA 1 µg/mL” value [5]?
Answer: 4.2 fold

Question: What about the “EC50 fold change compared to no shed CEA condition, sCEA 5 µg/mL” value [5] of the same binder?
Answer: 5.5 fold
